± gives the standard deviation of the averaged measurements.
B1: library; a variant is named by its letters at N, in order (parent)
chain: ACATTTGTTGATACAACCATAAAATGATAATTACACCCATAAATTGATAATTATCACACCCANNNNNNNNNNNNNNCTCTGATCATAGTCAGACCAACATTGCTACGACCCGTATTCGCACCGACAC

Assays:
[1] = variants of: B1; test: relative integration efficiency (T-RL orientation) vs wild-type transposon end (log2 (normalized fold change)); transposon end mutated: right end (5 bp flank + 75 bp right end); higher = more efficient transposition; conditions: with VchCAST RNA-guided transposition machinery (E. coli BL21(DE3) host, lacZ target)
Experimental: (§1)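 Pooled, barcoded VchCAST (Tn6677) mini-transposon donor libraries; each variable transposon-end sequence sits in a fixed pDonor mini-transposon context (10-bp barcode and cargo not included). Left- or right-end libraries were co-transformed with pEffector (TniQ-Cascade, TnsABC, lacZ crRNA, T7, 0.1 mM IPTG) into E. coli BL21(DE3) and grown 18 h at 37 C. T-LR and T-RL junction amplicons were sequenced; output/input barcode fold change was normalised to the mean of four wild-type barcodes and log2-transformed. Two biological replicates; zero-count/undetected variants carry floor values (-10 / -15), censored here. Barcode uncoupling by PCR recombination adds noise.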

[2] = variants of: B1; test: relative integration efficiency (T-LR orientation) vs wild-type transposon end (log2 (normalized fold change)); transposon end mutated: right end (5 bp flank + 75 bp right end); higher = more efficient transposition; conditions: with VchCAST RNA-guided transposition machinery (E. coli BL21(DE3) host, lacZ target)
Experimental: as §1

TAAATTGATATTGA C77A
relative integration efficiency (log2) [1]: 0.00362 ± 0.0095 | relative integration efficiency (log2) [2]: 0.066 ± 0.4

TAAATTGATATTGC A24T
relative integration efficiency (log2) [1]: -0.125 ± 0.1 | relative integration efficiency (log2) [2]: -0.0829 ± 0.28

TAAATTGATATTGC A24G
relative integration efficiency (log2) [1]: 0.266 ± 0.047 | relative integration efficiency (log2) [2]: 0.156 ± 0.052

TAAATTGATATTGC A42T
relative integration efficiency (log2) [1]: 0.0512 ± 0.029 | relative integration efficiency (log2) [2]: -0.0993 ± 0.22

ATTTAACTATAACG T54A
relative integration efficiency (log2) [1]: -1.14 ± 0.19 | relative integration efficiency (log2) [2]: 2.49 ± 0.12

TAAATTGATATTGC T20G
relative integration efficiency (log2) [1]: -1.34 ± 0.03 | relative integration efficiency (log2) [2]: -1.12 ± 0.28

TAAATTGATATTGC T20C
relative integration efficiency (log2) [1]: -0.448 ± 0.19 | relative integration efficiency (log2) [2]: -0.577 ± 0.33

ATTTAACTATAACG A39G
relative integration efficiency (log2) [1]: -0.496 ± 0.057 | relative integration efficiency (log2) [2]: 2.47 ± 0.042

ATTTAACTATAACG A39C
relative integration efficiency (log2) [1]: -2.44 ± 0.36 | relative integration efficiency (log2) [2]: 0.461 ± 0.1

TAAATTGATATTGC C17T
relative integration efficiency (log2) [1]: 7.24e-05 ± 0.068 | relative integration efficiency (log2) [2]: -0.744 ± 0.39

TAAATTGATATTGC T12C
relative integration efficiency (log2) [1]: -0.235 ± 0.019 | relative integration efficiency (log2) [2]: -0.906 ± 0.64

TAAATTGATATTGC T12A
relative integration efficiency (log2) [1]: -0.107 ± 0.031 | relative integration efficiency (log2) [2]: -0.916 ± 0.17

TAAATTGATATTGC C36T
relative integration efficiency (log2) [1]: -0.172 ± 0.077 | relative integration efficiency (log2) [2]: -0.179 ± 0.053

TAAATTGATATTGC C36G
relative integration efficiency (log2) [1]: -0.469 ± 0.0075 | relative integration efficiency (log2) [2]: -0.695 ± 0.23

TAAATTGATATTGC A13T
relative integration efficiency (log2) [1]: 0.116 ± 0.008 | relative integration efficiency (log2) [2]: 0.0619 ± 0.48

TAAATTGATATTGC A13G
relative integration efficiency (log2) [1]: 0.209 ± 0.06 | relative integration efficiency (log2) [2]: 0.173 ± 0.33

TAAATTGGTATTGC
relative integration efficiency (log2) [1]: 0.0075 ± 0.082 | relative integration efficiency (log2) [2]: 0.963 ± 0.065

TAAATTGATATTGC G7A
relative integration efficiency (log2) [1]: -0.0765 ± 0.034 | relative integration efficiency (log2) [2]: -0.974 ± 0.015

TAAATTGATATTGC G7C
relative integration efficiency (log2) [1]: -0.529 ± 0.13 | relative integration efficiency (log2) [2]: -1.41 ± 0.63

TAAATTGATATTGC T8A
relative integration efficiency (log2) [1]: -0.814 ± 0.13 | relative integration efficiency (log2) [2]: -1.99 ± 0.69

TAAATTGATATTGC A15T
relative integration efficiency (log2) [1]: -0.218 ± 0.022 | relative integration efficiency (log2) [2]: -0.624 ± 0.069

TAAATTGATATTGC A15C
relative integration efficiency (log2) [1]: 0.297 ± 0.19 | relative integration efficiency (log2) [2]: 0.449 ± 0.3

TATATTGATATTGC
relative integration efficiency (log2) [1]: 0.155 ± 0.039 | relative integration efficiency (log2) [2]: 0.337 ± 0.47

TAAATTGATATTGC T54A
relative integration efficiency (log2) [1]: -0.338 ± 0.15 | relative integration efficiency (log2) [2]: 0.141 ± 0.18

TAAATTGATATTGC T54G
relative integration efficiency (log2) [1]: 0.0616 ± 0.064 | relative integration efficiency (log2) [2]: 0.247 ± 0.082

ATTTAACTATAACG A19G
relative integration efficiency (log2) [1]: -0.904 ± 0.018 | relative integration efficiency (log2) [2]: 2.08 ± 0.037

TAAATGGATATTGC
relative integration efficiency (log2) [1]: -0.161 ± 0.039 | relative integration efficiency (log2) [2]: 1.54 ± 0.17

TAAATTGATATTGC G10T
relative integration efficiency (log2) [1]: -0.7118 ± 0.001 | relative integration efficiency (log2) [2]: -1.93 ± 0.22

ATTTAACTATAACG T25A
relative integration efficiency (log2) [1]: -1.13 ± 0.11 | relative integration efficiency (log2) [2]: 2.26 ± 0.046

ATTTAACTATAACG T25G
relative integration efficiency (log2) [1]: -1.44 ± 0.3 | relative integration efficiency (log2) [2]: 1.851 ± 0.01

ATTTAACTATAACG T25C
relative integration efficiency (log2) [1]: -1.07 ± 0.25 | relative integration efficiency (log2) [2]: 2.2 ± 0.17

TAAATTGATATTGC A43T
relative integration efficiency (log2) [1]: -0.127 ± 0.0053 | relative integration efficiency (log2) [2]: -0.303 ± 0.3

ATTTAACTATAACG A50G
relative integration efficiency (log2) [1]: -1.62 ± 0.3 | relative integration efficiency (log2) [2]: 2.18 ± 0.28

ATTTAACTATAACG A50C
relative integration efficiency (log2) [1]: -1.36 ± 0.36 | relative integration efficiency (log2) [2]: 2.44 ± 0.1

ATTTAACTATAACG C55A
relative integration efficiency (log2) [1]: -1.63 ± 0.35 | relative integration efficiency (log2) [2]: 2.34 ± 0.071

ATTTAACTATAACG C55T
relative integration efficiency (log2) [1]: -1.15 ± 0.35 | relative integration efficiency (log2) [2]: 2.56 ± 0.14

TAAATTGATATTGC A22T
relative integration efficiency (log2) [1]: -0.215 ± 0.042 | relative integration efficiency (log2) [2]: -0.148 ± 0.0031

TAAATTGATATTGC A22C
relative integration efficiency (log2) [1]: -0.874 ± 0.074 | relative integration efficiency (log2) [2]: -1.72 ± 0.82

ATTTTTGATATTGC
relative integration efficiency (log2) [1]: -0.244 ± 0.095 | relative integration efficiency (log2) [2]: 1.64 ± 0.1

ATTTAACTATAACG A21T
relative integration efficiency (log2) [1]: -0.978 ± 0.093 | relative integration efficiency (log2) [2]: 2 ± 0.062

ATTTAACTATAACG A21C
relative integration efficiency (log2) [1]: -1.05 ± 0.21 | relative integration efficiency (log2) [2]: 1.892 ± 0.013

TAAATAGATATTGC
relative integration efficiency (log2) [1]: -0.222 ± 0.0045 | relative integration efficiency (log2) [2]: 1.53 ± 0.13

TAAATTGATATACG C77G
relative integration efficiency (log2) [1]: 0.221 ± 0.0027 | relative integration efficiency (log2) [2]: 0.3 ± 0.0057

TAAATTGATATTGC C14T
relative integration efficiency (log2) [1]: -0.00853 ± 0.13 | relative integration efficiency (log2) [2]: 0.0199 ± 0.32

TAAATTGATATTGC C14A
relative integration efficiency (log2) [1]: -0.119 ± 0.027 | relative integration efficiency (log2) [2]: -0.254 ± 0.16

ATTTAACTATAACG A13C
relative integration efficiency (log2) [1]: -0.7 ± 0.17 | relative integration efficiency (log2) [2]: 2.25 ± 0.23

TAAATTGATATTGC T9C
relative integration efficiency (log2) [1]: 0.234 ± 0.012 | relative integration efficiency (log2) [2]: 0.331 ± 0.42

TAAATTGATATTGC T9G
relative integration efficiency (log2) [1]: 0.104 ± 0.038 | relative integration efficiency (log2) [2]: 0.0503 ± 0.46

TATTTTGATATTGC
relative integration efficiency (log2) [1]: -0.123 ± 0.052 | relative integration efficiency (log2) [2]: 0.19 ± 0.27

ATTTAACTATAACG A30T
relative integration efficiency (log2) [1]: 0.406 ± 0.54 | relative integration efficiency (log2) [2]: 4.401 ± 0.043

TAAAATGATAATTA C59A
relative integration efficiency (log2) [1]: 0.000716 ± 0.075 | relative integration efficiency (log2) [2]: -0.0217 ± 0.15

— the supplement of paper PMC10201428
